Results: publication PMC3747071

Biological target: HA-tagged GW182 (Drosophila) (UniProt Q8SY33)
Test: co-IP; lysate of stable S2 cells expressing HA-GW182 and Myc-HPat, treated with dsRNA against YFP (control), AGO1, NOT1, EDC4 and DCP1, or XRN1; anti-HA antibody (12CA5) cross-linked to protein A sepharose; washes with NET buffer with 300 mM NaCl; quantitative Western blot

UniProt Q8SY33, sequence (Q8SY33 whole entry): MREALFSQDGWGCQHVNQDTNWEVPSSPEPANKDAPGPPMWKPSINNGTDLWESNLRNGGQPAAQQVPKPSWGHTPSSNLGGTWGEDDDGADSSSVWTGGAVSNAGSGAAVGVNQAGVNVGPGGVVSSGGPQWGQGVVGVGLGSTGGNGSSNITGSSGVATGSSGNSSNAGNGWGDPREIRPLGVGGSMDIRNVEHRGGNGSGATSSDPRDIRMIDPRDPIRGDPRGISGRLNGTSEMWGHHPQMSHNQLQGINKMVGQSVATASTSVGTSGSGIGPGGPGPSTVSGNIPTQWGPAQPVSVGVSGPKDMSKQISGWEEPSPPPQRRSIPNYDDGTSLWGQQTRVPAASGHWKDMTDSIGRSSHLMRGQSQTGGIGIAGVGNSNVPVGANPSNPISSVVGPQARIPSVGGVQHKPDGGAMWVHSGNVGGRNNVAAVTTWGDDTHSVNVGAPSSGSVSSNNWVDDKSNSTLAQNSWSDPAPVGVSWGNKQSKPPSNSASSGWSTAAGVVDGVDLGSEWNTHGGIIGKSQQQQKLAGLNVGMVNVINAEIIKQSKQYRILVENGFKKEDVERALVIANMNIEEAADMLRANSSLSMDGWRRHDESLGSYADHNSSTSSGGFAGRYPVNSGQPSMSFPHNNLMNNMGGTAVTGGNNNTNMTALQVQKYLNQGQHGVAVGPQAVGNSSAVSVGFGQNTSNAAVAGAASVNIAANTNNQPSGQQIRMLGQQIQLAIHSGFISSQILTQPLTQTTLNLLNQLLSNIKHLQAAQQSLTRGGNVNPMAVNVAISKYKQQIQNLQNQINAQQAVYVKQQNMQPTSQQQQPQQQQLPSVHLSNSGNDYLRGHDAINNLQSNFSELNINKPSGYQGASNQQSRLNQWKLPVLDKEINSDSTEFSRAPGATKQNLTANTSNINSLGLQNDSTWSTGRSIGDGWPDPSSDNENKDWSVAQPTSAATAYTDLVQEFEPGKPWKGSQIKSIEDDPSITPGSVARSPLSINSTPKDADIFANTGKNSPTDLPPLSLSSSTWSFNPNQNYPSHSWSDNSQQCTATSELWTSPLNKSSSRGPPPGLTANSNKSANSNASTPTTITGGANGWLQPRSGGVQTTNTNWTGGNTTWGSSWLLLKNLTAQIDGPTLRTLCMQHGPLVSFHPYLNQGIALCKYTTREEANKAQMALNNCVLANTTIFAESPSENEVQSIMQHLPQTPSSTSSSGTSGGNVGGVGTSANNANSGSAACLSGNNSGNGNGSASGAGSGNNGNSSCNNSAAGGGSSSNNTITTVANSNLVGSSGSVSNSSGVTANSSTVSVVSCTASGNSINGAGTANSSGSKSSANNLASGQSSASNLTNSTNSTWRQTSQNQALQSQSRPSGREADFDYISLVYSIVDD

decrease of the Myc-HPat/HA-GW182 ratio in the immunoprecipitate, AGO1 knockdown cells against dsYFP control cells: 84.6%
decrease of the Myc-HPat/HA-GW182 ratio in the immunoprecipitate, NOT1 knockdown cells against dsYFP control cells: 69.7%
Substance: Myc-tagged HPat (natural protein)
